Test results published in patent US20240417437A1 (TRUTINO BIOSCIENCES, published 2024).

What was measured:
[1] = target: fibronectin (Sigma), coated on 96-well plates; assay: plate ELISA on coated fibronectin at pH 6, OD 450-650nm. The EC50 is printed in the plot area beside the top curve (Construct EE - pH 6), the only strongly rising curve
Method: A similar plate-based assay was developed to interrogate binding of IL-2 fusion variants to fibronectin. 96-well plates were coated with fibronectin (4-10 μg/mL, Sigma) or control BSA for 18-22 hours at room temperature on shaker (350 rpm). After washing, wells were blocked with 2% milk powder in PBS-0.05% Tween 20 or protein-free blocking buffer (Pierce) for 90 min, then fusion proteins were titrated in blocking buffer-0.1% Tween 20, pH 7.5 and/or pH 6, and added for 1 hour at room temperature with shaking. After washing, an anti-mouse IL-2 biotin-labelled detection antibody (JES6-5H4, ThermoFisher) or anti-human IgG HRP conjugate antibody (SouthernBiotech) was added, and binding was detected using Ultra Streptavidin HRP (ThermoFisher). The plate was developed by adding the chromogenic tetramethylbenzidine substrate (Ultra TMB, ThermoFisher). The reaction was stopped by addition of 0.5 M H₂SO₄, and the absorbance was read at 450-650 nm.

[2] = target: T1, collagen cross-linked to agarose (Sigma); assay: pulldown with collagen-agarose, immunoblot quantified with iBright imaging system; reference Construct B
T1 construct: also called collagen-agarose; collagen-agarose beads
Method: To test binding to collagen, a pulldown assay using agarose cross-linked to collagen (Sigma) was performed. IL-2 fusion proteins were incubated with collagen-agarose or control agarose beads for 18-22 hours at 4° C. with gentle rotation in 1% BSA/PBS-0.05% Tween 20. After washing, proteins bound to the beads were eluted by resuspending beads in SDS sample buffer (Life Technologies). […] Donkey anti-goat HRP-conjugated antibody was used for detection (Jackson Immuno Research, West Grove, PA), and the blot was developed using the SuperSignal West Femto Maximum sensitivity detection reagent (ThermoFisher) following the manufacturer's recommendations. Construct GG and Construct II were specifically bound by collagen-agarose beads, while no IL-2 fusion protein bound the control agarose beads.

Chain of fibronectin (Sigma), coated on 96-well plates (P02751 32-2477): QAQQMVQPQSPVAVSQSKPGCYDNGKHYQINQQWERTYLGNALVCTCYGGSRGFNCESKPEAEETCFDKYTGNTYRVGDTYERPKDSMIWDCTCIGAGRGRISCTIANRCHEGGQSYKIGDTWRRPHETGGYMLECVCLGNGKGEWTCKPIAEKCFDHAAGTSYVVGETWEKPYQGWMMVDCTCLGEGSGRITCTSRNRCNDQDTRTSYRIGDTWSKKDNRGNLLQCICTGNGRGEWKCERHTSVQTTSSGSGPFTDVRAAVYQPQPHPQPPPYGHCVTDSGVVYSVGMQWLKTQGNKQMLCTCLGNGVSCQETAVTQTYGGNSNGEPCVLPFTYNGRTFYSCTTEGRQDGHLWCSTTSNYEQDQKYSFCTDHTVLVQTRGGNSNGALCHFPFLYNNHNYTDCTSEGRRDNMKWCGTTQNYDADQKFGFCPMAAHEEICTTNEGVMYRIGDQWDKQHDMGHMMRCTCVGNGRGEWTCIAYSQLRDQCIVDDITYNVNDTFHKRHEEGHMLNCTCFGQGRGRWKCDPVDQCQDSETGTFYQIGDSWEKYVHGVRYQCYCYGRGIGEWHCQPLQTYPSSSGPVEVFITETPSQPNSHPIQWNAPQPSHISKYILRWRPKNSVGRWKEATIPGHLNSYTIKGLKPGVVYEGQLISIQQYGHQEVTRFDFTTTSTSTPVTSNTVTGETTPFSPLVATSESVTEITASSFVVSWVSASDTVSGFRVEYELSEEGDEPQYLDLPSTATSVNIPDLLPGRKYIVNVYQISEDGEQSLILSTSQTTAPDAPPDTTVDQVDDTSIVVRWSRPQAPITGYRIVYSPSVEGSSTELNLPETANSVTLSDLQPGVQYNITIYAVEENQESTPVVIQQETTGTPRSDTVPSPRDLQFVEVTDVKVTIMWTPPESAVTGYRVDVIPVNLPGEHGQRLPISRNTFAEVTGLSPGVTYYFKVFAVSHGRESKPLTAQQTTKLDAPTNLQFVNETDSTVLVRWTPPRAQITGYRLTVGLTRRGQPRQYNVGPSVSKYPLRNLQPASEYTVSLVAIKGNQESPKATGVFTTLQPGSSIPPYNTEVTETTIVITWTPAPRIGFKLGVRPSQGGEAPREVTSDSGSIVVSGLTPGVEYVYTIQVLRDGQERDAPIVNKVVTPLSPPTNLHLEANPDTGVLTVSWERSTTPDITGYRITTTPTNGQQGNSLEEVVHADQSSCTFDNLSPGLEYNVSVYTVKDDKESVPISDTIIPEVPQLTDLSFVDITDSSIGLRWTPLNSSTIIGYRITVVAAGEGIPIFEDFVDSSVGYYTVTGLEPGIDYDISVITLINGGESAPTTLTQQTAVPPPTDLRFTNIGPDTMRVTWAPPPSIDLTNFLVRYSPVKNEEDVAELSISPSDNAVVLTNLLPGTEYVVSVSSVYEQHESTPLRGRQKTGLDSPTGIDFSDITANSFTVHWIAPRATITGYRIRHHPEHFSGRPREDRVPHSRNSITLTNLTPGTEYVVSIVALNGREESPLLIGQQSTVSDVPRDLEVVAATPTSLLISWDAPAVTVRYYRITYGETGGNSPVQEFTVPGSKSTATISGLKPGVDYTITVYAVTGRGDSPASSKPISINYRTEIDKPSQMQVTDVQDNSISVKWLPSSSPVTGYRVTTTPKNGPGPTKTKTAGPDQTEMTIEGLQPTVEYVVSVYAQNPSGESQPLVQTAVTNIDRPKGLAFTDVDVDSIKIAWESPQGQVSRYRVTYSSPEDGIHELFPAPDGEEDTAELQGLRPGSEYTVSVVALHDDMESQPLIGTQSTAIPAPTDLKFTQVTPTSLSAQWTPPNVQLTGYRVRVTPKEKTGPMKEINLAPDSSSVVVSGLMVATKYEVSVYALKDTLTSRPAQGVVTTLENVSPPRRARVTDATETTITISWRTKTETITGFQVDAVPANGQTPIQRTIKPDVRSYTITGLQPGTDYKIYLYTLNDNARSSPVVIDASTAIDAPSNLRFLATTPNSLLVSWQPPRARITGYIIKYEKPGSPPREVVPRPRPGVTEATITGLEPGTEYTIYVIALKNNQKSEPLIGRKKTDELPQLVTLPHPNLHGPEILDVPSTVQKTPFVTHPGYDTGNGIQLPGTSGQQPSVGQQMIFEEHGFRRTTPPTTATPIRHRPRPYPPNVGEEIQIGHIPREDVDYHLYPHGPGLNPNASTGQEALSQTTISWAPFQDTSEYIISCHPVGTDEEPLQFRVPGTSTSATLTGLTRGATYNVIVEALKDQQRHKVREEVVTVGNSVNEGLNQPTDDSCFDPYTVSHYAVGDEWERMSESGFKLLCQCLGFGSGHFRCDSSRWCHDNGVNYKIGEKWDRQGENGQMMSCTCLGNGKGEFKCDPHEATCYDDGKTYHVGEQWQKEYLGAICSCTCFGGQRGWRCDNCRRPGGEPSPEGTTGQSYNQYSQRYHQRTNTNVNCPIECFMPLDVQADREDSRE

B1: Construct EE (pH fibronectin): mIL2-SGG-GGWSHW(SEQ ID NO: 653)-MMPcs1-2x(G4S)-mIL2Ra(1-215)-muIgG1Fc (Fc fusion)
chain: APTSSSTSSSTAEAQQQQQQQQQQQQHLEQLLMDLQELLSRMENYRNLKLPRMLTFKFYLPKQATELKDLQCLEDELGPLRHVLDLTQSKSFQLEDAENFISNIRVTVVKLKGSDNTFECQFDDESATVVDFLRRWIAFCQSIISTSPQSGGGGWSHWGPLGVRGGGGGSGGGGSELCLYDPPEVPNATFKALSYKNGTILNCECKRGFRRLKELVYMRCLGNSWSSNCQCTSNSHDKSRKQVTAQLEHQKEQQTTTDMQKPTQSMHQENLTGHCREPPPWKHEDSKRIYHFVEGQSVHYECIPGYKALQRGPAISICKMKCGKTGWTQPQLTCVDEREHHRFLASEESQGSRNSSPESETSCPITTTDFPQPTETTAMTETFVLTMEYKGCKPCICTVPEVSSVFIFPPKPKDVLTITLTPKVTCVVVDISKDDPEVQFSWFVDDVEVHTAQTQPREEQFNSTFRSVSELPIMHQDWLNGKEFKCRVNSAAFPAPIEKTISKTKGRPKAPQVYTIPPPKEQMAKDKVSLTCMITDFFPEDITVEWQWNGQPAENYKNTQPIMDTDGSYFVYSKLNVQKSNWEAGNTFTCSVLHEGLHNHHTEKSLSHSPGK
notes: Single-chain mouse IL-2 / IL-2Ralpha / mouse IgG1 Fc fusion
An EC50 [1] of 1820 nM was found for B1 in this work.

B2: Construct II (collagen I): mIL2-LHERHLNNN(SEQ ID NO: 665)-MMPcs1-2x(G4S)-mIL2Ra(1-215)-muIgG1Fc (Fc fusion)
chain: APTSSSTSSSTAEAQQQQQQQQQQQQHLEQLLMDLQELLSRMENYRNLKLPRMLTFKFYLPKQATELKDLQCLEDELGPLRHVLDLTQSKSFQLEDAENFISNIRVTVVKLKGSDNTFECQFDDESATVVDFLRRWIAFCQSIISTSPQSLHERHLNNNGPLGVRGGGGGSGGGGSELCLYDPPEVPNATFKALSYKNGTILNCECKRGFRRLKELVYMRCLGNSWSSNCQCTSNSHDKSRKQVTAQLEHQKEQQTTTDMQKPTQSMHQENLTGHCREPPPWKHEDSKRIYHFVEGQSVHYECIPGYKALQRGPAISICKMKCGKTGWTQPQLTCVDEREHHRFLASEESQGSRNSSPESETSCPITTTDFPQPTETTAMTETFVLTMEYKGCKPCICTVPEVSSVFIFPPKPKDVLTITLTPKVTCVVVDISKDDPEVQFSWFVDDVEVHTAQTQPREEQFNSTFRSVSELPIMHQDWLNGKEFKCRVNSAAFPAPIEKTISKTKGRPKAPQVYTIPPPKEQMAKDKVSLTCMITDFFPEDITVEWQWNGQPAENYKNTQPIMDTDGSYFVYSKLNVQKSNWEAGNTFTCSVLHEGLHNHHTEKSLSHSPGK
With B2 the “fold of bound fraction over Construct B” value [2] was 1.4 fold.
